Test results taken from patent US20120148586A1 (published 2012).

Target: GLP-1R (receptor addressed by the glucose-stimulated insulin secretion assay of Table 1)
Assay: cell-based or functional assay

EC50 (µM), glucose-stimulated insulin secretion (GSIS) assay [µM]	Binder
0.094	HXEGTFTSDVSSYLEGQAAKEFIAWLVKXR (Aib at position 2 and Aib before the C-terminal R; linking residue K26 (so in the source)) [peptide of GAC-9 (not tethered to an antibody)]
0.041	HXEGTFTSDVSSYLEGQAAKEFIAWLVKGR (Aib at position 2; linking residue K26 (so in the source)) [peptide of GAC-4 (not tethered to an antibody)]
